Source: article PMC6787082, “The cell cycle-regulated DNA adenine methyltransferase CcrM opens a bubble at its DNA recognition site”

Legend:
[1] = biological target: T1, CcrM (Caulobacter crescentus, UniProt P0CAW2 1-358); assay: X-ray crystallography (2.34 A); sinefungin; Co-crystallization: protein stock in 20 mM HEPES pH 8.0, 300 mM NaCl, 5% glycerol, 0.5 mM TCEP; ~1:1 monomer:duplex (~56 uM), 5x sinefungin; well 0.1 M HEPES pH 7.8, 10% PEG 8000, 3% PEG 6000; 19 C; conditions: protein: recombinant; tags: N-terminal His-tag; chain copies: 2; 5' overhang 1 nt on each strand (C and G), 18 bp
T1 sequence (P0CAW2 whole entry): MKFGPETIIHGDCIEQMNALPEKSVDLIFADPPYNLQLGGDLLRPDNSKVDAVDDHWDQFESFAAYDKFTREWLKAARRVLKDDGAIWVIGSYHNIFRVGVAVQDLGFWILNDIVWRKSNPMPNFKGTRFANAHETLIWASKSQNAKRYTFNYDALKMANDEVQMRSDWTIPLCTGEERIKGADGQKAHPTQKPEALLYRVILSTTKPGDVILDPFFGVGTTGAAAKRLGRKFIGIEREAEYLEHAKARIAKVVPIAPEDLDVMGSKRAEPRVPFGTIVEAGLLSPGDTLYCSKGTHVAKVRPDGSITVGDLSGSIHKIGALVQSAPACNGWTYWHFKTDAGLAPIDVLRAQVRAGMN

[2] = biological target: T1, CcrM; assay: X-ray crystallography (2.7 A); sinefungin; Co-crystallization: protein stock in 20 mM HEPES pH 8.0, 300 mM NaCl, 5% glycerol, 0.5 mM TCEP; ~1:1 monomer:duplex (~56 uM), 5x sinefungin; well 0.1 M HEPES pH 7.8, 10% PEG 8000, 3% PEG 6000; 19 C; conditions: protein: recombinant; tags: N-terminal His-tag; chain copies: 2; 5' overhang 1 nt on each strand, 18 bp

B1: GAATC 18-bp duplex with 1-nt overhangs (dsDNA)
DNA 1: CGATTCAATGAATCCCAAG
DNA 2: GCTTGGGATTCATTGAATC
[1]
  binding result: binds

B2: Hemimethylated GAATC duplex (dsDNA)
DNA 1: CGATTCAATGAATCCCAAG
DNA 2: GCTTGGGATTCATTGAATC
modifications: N6-methyladenine (printed M) at position 8 of strand 2 (GATTC, non-target strand)
[2]
  binding result: binds
